Data on ten substances can be found in patent US20240352102A1.

The target in assay [1] is T1, Peptide_060.
T1 sequence (peptide): LKHQPGGGKVQIINK
Briefly: peptide microarray.

Assay [2] deals with T1, Peptide_060. Briefly: peptide microarray. This is another data set of the same source.
Assay [3] has as its target T2, Peptide_061.
T2 sequence (peptide): PGGGKVQIINKKLDL
Briefly: peptide microarray.

The target in assay [4] is T2, Peptide_061. Briefly: peptide microarray. The source holds these as a separate data set.
The target of assay [5] is T3, Peptide_051.
T3 sequence (peptide): RTPPKSPSSAKSRLQ
Briefly: peptide microarray.

Assay [6] concerns the target biotinylated a/B tubulin dimers. Briefly: SPR, biotinylated tubulin dimers as probe on a streptavidin chip, tau in solution. In general terms: Surface plasmon resonance follows binding to a sensor surface in real time, without labels.
The target in assay [7] is T1, Peptide_060. The experiment in a line: peptide microarray. This is another data set of the same source.

Where “and” joins values, the source holds several entries; their conditions need not be identical. Equal values may be shown once. Read-outs that look alike come from different tables or passages of the source.

On to TOC1 (antibody), for which the fluorescence intensity in assay [1] was 1580 and 1790. Take T14 (antibody): the fluorescence intensity is 840 in assay [2] and 1010 in assay [1]. Consider T46 (antibody), for which the fluorescence intensity is 3020 in assay [3]; 1650 and 844 in assay [1]. Consider RD4 (antibody), for which the fluorescence intensity in assay [4] turned out to be 21000; in assay [5] it was 163; in assay [2], 738; in assay [3], 10700; in assay [1], 722.

As for MC1 (antibody), in assay [1], the fluorescence intensity was 770 and 1100. What is called Kd is the concentration at which binding is half-saturated. A low value points to higher affinity. “Recombinant human tau isoform 1N4R (from UniProt P10636 1-412)” came in with a Kd in assay [6] of 39.8 nM.

TNT2 (antibody): in assay [7], the fluorescence intensity is 771 and 1024. On to ALZ50 (antibody), for which the figures for the fluorescence intensity in assay [7] and in assay [1] were 3070 and 2600, respectively. On to tau1 (antibody), for which the fluorescence intensity in assay [1] was 3040 and 1780.

Regarding TNT1 (antibody), the fluorescence intensity in assay [7] was 925 and 797.
